Results reported in patent publication US20260242478A1 (published 2026).

B1: Phage-3954 (peptide)
peptide: FFQVCEPQWMCLGF
notes: tested as crude clonal phage supernatant
B2: Phage-3932 (Peptide-180 library clone) (peptide)
peptide: LNVECVPQWMCDGF
notes: Tested as clonal phage supernatant; not shown: fused to the pIII filament protein of the bacteriophage
B3: Phage-3933 (Peptide-180 library clone) (peptide)
peptide: YTQACTPSWMCHGF
notes: as for B2
B4: Phage-3935 (Peptide-180 library clone) (peptide)
peptide: PGFWCQPKWMCEGF
notes: as for B2
B5: Phage-3897 (peptide)
peptide: LTLKCAPAWMCNGF
notes: as for B1
B6: Phage-3928 (Peptide-180 library clone) (peptide)
peptide: WDLLCSPPWMCAGM
notes: as for B2
B7: Phage-3936 (Peptide-180 library clone) (peptide)
peptide: WVRLCQPAWMCTGL
notes: as for B2

How the values were obtained:
PSMA Fab (006 PSMA Fab) [1] = molecular target: T1, PSMA Fab (006 PSMA Fab); test: clonal phage supernatant on biotinylated PSMA Fab captured on neutravidin plate, anti-M13-HRP detection;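 also: before phage were added, wells received PSMA antigen in blocking buffer or blocking buffer alone, with no wash in between, followed by a short phage incubation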
T1 construct: also called Anti-PSMA Fab
Procedure: (§1) Clonal phage were harvested as crude supernatants and screened via standard ELISAs. […] Prior to the addition of clonal phage. wells were incubated with blocking buffer and PSMA antigen or blocking buffer alone. Without washing or aspirating, clonal phage supernatants were then added to the wells and incubated for a short time. Wells were then washed followed by detection of bound phage using a horse radish conjugated anti-M13 antibody.

PSMA Fab (006 PSMA Fab) [2] = molecular target: T1, PSMA Fab (006 PSMA Fab); test: phage ELISA on captured PSMA Fab pre-incubated with the competitor PSMA antigen, anti-M13-HRP detection
Procedure: as §1

006 PSMA Fab [3] = molecular target: T2, 006 PSMA Fab; test: clonal phage ELISA; biotinylated PSMA Fab captured on neutravidin plate, wells pre-incubated with PSMA antigen as competitor; bound phage detected with anti-M13 HRP
T2 construct: In the phage ELISA the PSMA Fab was biotinylated and captured on neutravidin coated plates; also called Anti-PSMA Fab
Procedure: as §1

006 PSMA Fab [4] = molecular target: T2, 006 PSMA Fab; test: clonal phage ELISA; biotinylated PSMA Fab captured on neutravidin plate, blocking buffer alone; bound phage detected with anti-M13 HRP
Procedure: as §1

Anti-PSMA Fab [5] = molecular target: T3, Anti-PSMA Fab (biotinylated (site not stated)); test: clonal phage ELISA on plate-captured biotinylated PSMA Fab, blocking buffer alone
T3 construct: Biotinylated PSMA Fab captured on neutravidin coated plates; also called 006 PSMA Fab

Anti-PSMA Fab [6] = molecular target: T3, Anti-PSMA Fab; test: clonal phage ELISA on plate-captured biotinylated PSMA Fab, wells pre-incubated with PSMA antigen as competitor
Procedure: as §1

PSMA Fab (006 PSMA Fab) [7] = molecular target: T4, PSMA Fab (006 PSMA Fab); test: phage binding ELISA; biotinylated PSMA Fab on neutravidin plate, clonal phage supernatant, anti-M13 HRP detection;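 also: wells were preincubated with blocking buffer either containing PSMA antigen or without it before crude phage supernatant was added, briefly incubated, then washed prior to detection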
T4 construct: also called Anti-PSMA Fab; anti-PSMA Fab
Procedure: as §1

006 PSMA Fab [8] = molecular target: T5, 006 PSMA Fab (biotinylated (site not stated)); test: clonal phage ELISA; biotinylated PSMA Fab on neutravidin plate pre-incubated with PSMA antigen as competitor, anti-M13-HRP detection
T5 construct: also called Anti-PSMA Fab

006 PSMA Fab [9] = molecular target: T5, 006 PSMA Fab; test: clonal phage ELISA; biotinylated PSMA Fab on neutravidin plate, blocking buffer alone, anti-M13-HRP detection;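 also: crude clonal phage supernatants added without washing to wells preincubated with PSMA antigen or with blocking buffer alone, briefly incubated, then washed before bound phage detection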
Procedure: as §1

| Binder | Phage binding ELISA signal, Anti-PSMA Fab (PSMA Fab (006 PSMA Fab) [1]) | phage binding ELISA signal, Anti-PSMA Fab in the presence of PSMA (PSMA Fab (006 PSMA Fab) [2]) | Phage binding ELISA signal, Anti-PSMA Fab with PSMA antigen (006 PSMA Fab [3]) | Phage binding ELISA signal, Anti-PSMA Fab (006 PSMA Fab [4]) | other results |
| --- | --- | --- | --- | --- | --- |
| GQIMCIPTWMCSGF [Phage-3921] | 0.98 | 0.0809 | – | – | – |
| STMSCVPSWMCLGF [Phage-3946] | – | – | 0.0614 | 0.885 | – |
| B1 | – | – | – | – | Phage binding ELISA signal, Anti-PSMA Fab (Anti-PSMA Fab [5]): 0.854; phage binding ELISA signal (Anti-PSMA Fab with PSMA) (Anti-PSMA Fab [6]): 0.0548 |
| AVHMCAPSWMCSGF [Phage-3952] | – | – | 0.0825 | 0.87 | – |
| MSPMCSPSWMCMGF [Phage-3919] | 0.993 | 0.0911 | – | – | – |
| ILPRCEPYWMCTGL [Phage-3950] | – | – | 0.0634 | 0.872 | – |
| DSLVCQPRWMCVGF [Phage-3945] | – | – | 0.063 | 0.895 | – |
| LVRMCQPPWMCDGF [Phage-3941] | – | – | 0.0699 | 0.912 | – |
| GAYTCVPAWMCQGF [Phage-3922] | 0.979 | 0.0665 | – | – | – |
| B2 | – | – | – | – | Phage binding ELISA signal, Anti-PSMA Fab (PSMA Fab (006 PSMA Fab) [7]): 0.965 |
| YNQYCTPLWMCEGF [Phage-3924] | 0.977 | 0.0796 | – | – | – |
| ESRACVPNWMCHGL [Phage-3911] | 1.03 | 0.06 | – | – | – |
| STTLCRPAWMCTGM [Phage-3916] | 1.02 | 0.0655 | – | – | – |
| B3 | – | – | – | – | Phage binding ELISA signal, Anti-PSMA Fab (PSMA Fab (006 PSMA Fab) [7]): 0.96 |
| B4 | – | – | – | – | Phage binding ELISA signal, Anti-PSMA Fab (PSMA Fab (006 PSMA Fab) [7]): 0.93 |
| TQVKCIPLWMCDGF [Phage-3947] | – | – | 0.0544 | 0.885 | – |
| B5 | – | – | – | – | Phage binding ELISA signal, Anti-PSMA Fab in the presence of PSMA antigen (006 PSMA Fab [8]): 0.0619; Phage binding ELISA signal, Anti-PSMA Fab (006 PSMA Fab [9]): 1.08 |
| AQKLCEPMWMCVGF [Phage-3918] | 1 | 0.064 | – | – | – |
| B6 | – | – | – | – | Phage binding ELISA signal, Anti-PSMA Fab (PSMA Fab (006 PSMA Fab) [7]): 0.971 |
| B7 | – | – | – | – | Phage binding ELISA signal, Anti-PSMA Fab (PSMA Fab (006 PSMA Fab) [7]): 0.926 |
| GDIQCRPLWMCDGL [Phage-3942] | – | – | 0.128 | 0.907 | – |
| YQMLCVPEWMCSGL [Phage-3915] | 1.02 | 0.0874 | – | – | – |
| AQVLCVPNWMCTGF [Phage-3920] | 0.985 | 0.0618 | – | – | – |
| EFRECRPPWMCQGL [Phage-3944] | – | – | 0.0789 | 0.899 | – |
